The target in one test is FcgRI (human) (UniProt P12314). The experiment in a line: flow cytometry (FACSCalibur), THP-1 cells, pH 7.4, 100 ug/ml.
The target of test [1] is FcgRIIb (human) (UniProt P31994). Description: flow cytometry (FACSCalibur), CHO-FcgRII-b-1 cells, pH 7.4, 100 ug/ml.
The next test deals with FcRn (UniProt P55899). Description: flow cytometry (FACSCalibur), FcRnGPI-CHO cells, pH 6.4, detection reagent alone.
For a further test, the target named is FcgRIIa (human) (UniProt P12318). Description: flow cytometry (FACSCalibur), K562 cells, pH 7.4, detection reagent alone.
Chain of FcgRIIa (human) (P12318 34-317): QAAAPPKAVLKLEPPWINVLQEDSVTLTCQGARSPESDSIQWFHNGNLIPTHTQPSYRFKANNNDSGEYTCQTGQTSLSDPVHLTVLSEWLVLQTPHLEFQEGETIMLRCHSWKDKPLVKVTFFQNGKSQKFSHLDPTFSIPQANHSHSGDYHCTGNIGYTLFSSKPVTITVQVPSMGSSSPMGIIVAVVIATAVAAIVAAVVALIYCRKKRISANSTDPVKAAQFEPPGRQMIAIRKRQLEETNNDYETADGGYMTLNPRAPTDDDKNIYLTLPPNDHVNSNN
Test [2] has as its target FcgRIIb (human) (UniProt P31994). Description: flow cytometry (FACSCalibur), CHO-FcgRII-b-1 cells, pH 7.4, detection reagent alone.

Values joined by “and” are separate entries in the source; they are usually repeats but may differ in a detail not shown here. Identical values can stand only once.

Drawing on patent publication US20110044980A1, this text covers Fc Receptor Binding Geometric Mean for two substances.

In the case of EGFR (Erbitux ®, Imclone) (antibody), the Fc Receptor Binding Geometric Mean with FcgRI (human) is 101 and 67; with FcgRIIb (human) [1], 3.
Consider “R-PE conjugated anti-human IgG F(Ab')2 (Jackson ImmunoResearch, Cat.#109-116-170)”, for which the Fc Receptor Binding Geometric Mean was 6 and 5 with FcRn; 3 with FcgRIIa (human); 3 with FcgRIIb (human) [2].
